Measurements taken from the supplement of paper PMC9170038.

System: MS2 coat protein
Experiment: apparent KD of MS2 coat protein; designed switch direction (-1 OFF switch, 1 ON switch): -1; higher = weaker reporter binding
How it was run: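 For each design, the apparent KD is the median over clusters of curves fitted to normalised cluster fluorescence. Clusters held RNA switches with common flanks, transcribed on Illumina chips by stalled E. coli RNA polymerase. These were titrated with SNAP-549-labelled MS2 coat protein, doubling from 0.7 or 1.5 nM to 3 µM, without input, with 200 uM small-molecule ligand, or with an oligonucleotide input.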

[1] = Eterna round: R95, input ligand: FMN 200 uM
[2] = Eterna round: R95, input ligand: microRNA oligo, concentration not stated
[3] = Eterna round: R95, input ligand: none
[4] = input ligand: microRNA oligo, concentration not stated

In the case of “CGUACUAACACGAAAGUGUUAGUACAAUAAGCUUGUGAAACAUGAGGAUCACCCAUGUCCUCAUAAGCUCGUCUUAU [salish99_TOv2_r3_007] (puzzle: Sensor v3, turn-off variant 2)”, the “apparent KD of MS2 coat protein” value [1] is reported as 17.1 nM, the “apparent KD of MS2 coat protein” value [2] is reported as 967 nM and the “apparent KD of MS2 coat protein” value [3] is reported as 15.7 nM.
In the case of “CUUUUGUGAGGAUAUCAGUGGUAAAACAAUAGUAUUACUACUGAGAAGGCACAUGAGGAUCACCCAUGUUCCUC [Mat - Exclusion 4 - Mod of Omei - D85] (puzzle: Exclusion 4)”, the “apparent KD of MS2 coat protein” value [2] is reported as 42.7 nM.
With “GAGCCAUCGUGAGAUGGCUAAUUUACAUGAGGAUCACCCAUGUAGGAUAUCGAUUGCUUUGCAGUCGAGAAGGACAUGUUUAAU [JL ENG3 3.98] (Eterna round: R96, puzzle: Exclusion NG 3)” the “apparent KD of MS2 coat protein” value (input ligand: FMN 200 uM) was 71.6 nM, the “apparent KD of MS2 coat protein” value [4] was 28.3 nM and the “apparent KD of MS2 coat protein” value (input ligand: none) was 36.2 nM.
“CUCGGACAUGAGGAUCACCCAUGUGAGGAUAUGGCGCGAUCGUCGAAAGACGAUAGCGCCAGAAGGCACAAAUG [LRO-Excl1-26] (puzzle: Exclusion 1)” was tested, and the “apparent KD of MS2 coat protein” value [2] was 52 nM.
In the case of “GGAAAAGCAGGAUAUACAUGAGGAUCACCCAUGUAGGCUCGCCGAGACGUGGAUGGACGUAGAAGGGCUAUUCC [Eternabot (L1) Solution 65] (Eterna round: R97, puzzle: Exclusion 3)”, the “apparent KD of MS2 coat protein” value (input ligand: FMN 200 uM) is reported as 121 nM and the “apparent KD of MS2 coat protein” value (input ligand: none) is reported as 28.9 nM.
“CUCUUGUCAGGAUAUCUAAGCCACCUCCGGGCGGCCGAAUUAGAGAAGGGACAUGAGGAUCACCCAUGUAAAAG [Qumabi] (puzzle: Exclusion 4)” was tested, and the “apparent KD of MS2 coat protein” value [1] was 30 nM, the “apparent KD of MS2 coat protein” value [2] was 138 nM and the “apparent KD of MS2 coat protein” value [3] was 174 nM.
For “UCGGCGCGAGGAUAUGCGGUUCCUUCUUCGGGCCGGAGCGUACAUGAGGAUCACCCAUGUAGAAGGCGCGCCGC [Apr-15 SS2-37] (puzzle: Exclusion 2)”, the “apparent KD of MS2 coat protein” value [2] was 12.6 nM.
With “UUAUUAUAUGUAGGAUAUGCAUAUUAUUAUUAUGCAGAAGGACAUGAGGAUCACCCAUGUAUAUUAUUGUUAUAUAUUAUAUAU [Title] (Eterna round: R96, puzzle: Exclusion NG 1)” the “apparent KD of MS2 coat protein” value [4] was 21 nM.
With “GAAAUGGUAGGAUAUACGAAAAAAAAGGGUAGAAAAAAAACACAUGAGGAUCACCCAUGUAGAAGGACCAAAAG [salish99_ex2_r3_088] (puzzle: Exclusion 2)” the “apparent KD of MS2 coat protein” value [1] was 71.4 nM, the “apparent KD of MS2 coat protein” value [2] was 31.9 nM and the “apparent KD of MS2 coat protein” value [3] was 28.4 nM.
“AUAAAUAAGGAGGAUAUCGUAUCGGAAACGAUACGAGAAGGUCUAACAUGAGGAUCACCCAUGUUCCUCAAUAA [Mat - Exclusion 6 - Eli Mod - D47] (puzzle: Exclusion 6)” was tested, and the “apparent KD of MS2 coat protein” value [2] was 34.5 nM.
“GUCAUCAAACAUGGGAUCAACAUGAGGAUCACCCAUGUUGACAAGUUUUUUGCUCGUCUUAUAAUAAGUUUGAUGAC [Antenna 9 - Jieux - Sensor, turn-off variant 1] (Eterna round: R97, puzzle: Sensor, turn-off variant 1)” was tested, and the “apparent KD of MS2 coat protein” value (input ligand: FMN 200 uM) was 15.5 nM and the “apparent KD of MS2 coat protein” value (input ligand: none) was 16.2 nM.
In the case of “GAUUAACAUGAGGAUCACCCAUGUGAGGAUAUGGACUGGCUCACUUUUCGAUUCCCGUCUAGAAGGCACAUCUU [1986#10] (Eterna round: R97, puzzle: Exclusion 1)”, the “apparent KD of MS2 coat protein” value (input ligand: FMN 200 uM) is reported as 85.9 nM and the “apparent KD of MS2 coat protein” value (input ligand: none) is reported as 41.1 nM.
“ACUGUGACGUAGGAUAUCUCCUAAUUGCGCCGGAGAGAAGGACGUACAUGAGGAUCACCCAUGUGCCCUCGGAA [EX6 B.13] (Eterna round: R97, puzzle: Exclusion 6)” was tested, and the “apparent KD of MS2 coat protein” value (input ligand: FMN 200 uM) was 300 nM and the “apparent KD of MS2 coat protein” value (input ligand: none) was 56.4 nM.
With “AGAUCACAUGAGGAUCACCCAUGUGAGGAUAUGAUACUAUGUACUUCGGUACAUAGUAUCAGAAGGCAUGUGAA [Ex1-3: 74] (puzzle: Exclusion 1)” the “apparent KD of MS2 coat protein” value [2] was 42.7 nM.
With “ACCUCUUGAGGAUAUACAUGAGGAUCACCCAUGUUCCUUAAUAAAAUAGUUAUAUCGUGUAGAAGGUGGGAGGC [Eternabot (L2) Solution 42] (Eterna round: R97, puzzle: Exclusion 3)” the “apparent KD of MS2 coat protein” value (input ligand: FMN 200 uM) was 11.4 nM and the “apparent KD of MS2 coat protein” value (input ligand: none) was 69 nM.
For “AAUGAUGAUGUGAGGAUAUACAUAGUUAGACCGUAGUAGAAGGCACAUGAGGAUCACCCAUGUAGAUGUUAGGU [JR_BME4_Sub003] (puzzle: Brourd's mod of Exclusion 4)”, the “apparent KD of MS2 coat protein” value [1] was 21.5 nM, the “apparent KD of MS2 coat protein” value [2] was 12.9 nM and the “apparent KD of MS2 coat protein” value [3] was 14.4 nM.
In the case of “GUGUAGAUAGGAUAUGCUUAGAGCUUACGAAAGUAGGCUCUACAUGAGGAUCACCCAUGUAGAAGGGUCUACAC [Dot plot directed A v16] (puzzle: Exclusion 2)”, the “apparent KD of MS2 coat protein” value [2] is reported as 24.9 nM.
“AACCUGAGGCUUUGCUUUAGGUGUACAUGAGGAUCACCCAUGUAGGAUAUGGUAGGCUUUGCUUACCAGAAGGACAUUGGCGUU [JL ENG3 1.14] (Eterna round: R96, puzzle: Exclusion NG 3)” was tested, and the “apparent KD of MS2 coat protein” value (input ligand: FMN 200 uM) was 388 nM, the “apparent KD of MS2 coat protein” value [4] was 66.2 nM and the “apparent KD of MS2 coat protein” value (input ligand: none) was 97.3 nM.
With “UCUGUUCAAGGAUAUGCGUAAGGUGUUACGGCACCAGGUCUACAUGAGGAUCACCCAUGUAGAAGGUGAUCAGA [EX2 #88] (Eterna round: R97, puzzle: Exclusion 2)” the “apparent KD of MS2 coat protein” value (input ligand: FMN 200 uM) was 22.4 nM and the “apparent KD of MS2 coat protein” value (input ligand: none) was 20.3 nM.
For “AACCUACAUGAGGAUCACCCAUGUGAGGAUAUAUUGGUAUUUAUAUUAUUUUUUAGAGGUAGAAGGCGCGUGAU [JR_Exc1_Sub021] (Eterna round: R97, puzzle: Exclusion 1)”, the “apparent KD of MS2 coat protein” value (input ligand: FMN 200 uM) was 14.2 nM and the “apparent KD of MS2 coat protein” value (input ligand: none) was 14.2 nM.
In the case of “GCUUGUGGGCAAGGAUAUCCUACGCUGUUCUGGUUCGUGUCUGUCACAUGAGGAUCACCCAUGUGGGAGAAGGUGCAUUUGGGU [Design 58] (Eterna round: R96, puzzle: Exclusion NG 2)”, the “apparent KD of MS2 coat protein” value (input ligand: FMN 200 uM) is reported as 17.7 nM, the “apparent KD of MS2 coat protein” value [4] is reported as 21.2 nM and the “apparent KD of MS2 coat protein” value (input ligand: none) is reported as 20.9 nM.
“AAGUAUAGAGGAUAUAGUGAGUACUACAUGAGGAUCACCCAUGUUCUUCGAAACGUAUUUCUAGAAGGCUGAUAAA [EX-5 Malc#22] (puzzle: Exclusion 5)” was tested, and the “apparent KD of MS2 coat protein” value [1] was 35.3 nM, the “apparent KD of MS2 coat protein” value [2] was 28.2 nM and the “apparent KD of MS2 coat protein” value [3] was 29.2 nM.
For “CCACGACAUGAGGAUCACCCAUGUGAGGAUAUGGCCAGUAUGGCGUGAGCUGAAUCAAUCAGAAGGCGCGUGGG [salish99_ex1_r4_056] (Eterna round: R97, puzzle: Exclusion 1)”, the “apparent KD of MS2 coat protein” value (input ligand: FMN 200 uM) was 276 nM and the “apparent KD of MS2 coat protein” value (input ligand: none) was 339 nM.
“CGGUACUGAGGAUAUACAUGAGGAUCACCCAUGUGUUCAAGCUAGCGUACUGGCAUUAGUAGAAGGCGGUGCUG [JL-ex3-3.21 Brourd mod] (puzzle: Exclusion 3)” was tested, and the “apparent KD of MS2 coat protein” value [1] was 26.7 nM, the “apparent KD of MS2 coat protein” value [2] was 14.6 nM and the “apparent KD of MS2 coat protein” value [3] was 16.9 nM.
For “UGAAAAGACCUAGGAUAUACCCAGUGGGUAGAGGGUCAGAAUAAUAAAACAUGAGGAUCACCCAUGUAGAAGGAGGGAAAGAAG [Laerxe] (Eterna round: R96, puzzle: Exclusion NG 2)”, the “apparent KD of MS2 coat protein” value (input ligand: FMN 200 uM) was 48.3 nM, the “apparent KD of MS2 coat protein” value [4] was 42 nM and the “apparent KD of MS2 coat protein” value (input ligand: none) was 59.4 nM.
“GAGAACUGAGGAUAUACAUGAGGAUCACCCAUGUUAAGAAGAUAGUAUUGAUGGUUCUGUAGAAGGCAGAGAGA [JR_Ex3_Sub066] (Eterna round: R97, puzzle: Exclusion 3)” was tested, and the “apparent KD of MS2 coat protein” value (input ligand: FMN 200 uM) was 34.5 nM and the “apparent KD of MS2 coat protein” value (input ligand: none) was 30.8 nM.
With “GUCGUGCGGCUUUGCUGUACGAGUACAUGAGGAUCACCCAUGUAGGAUAUGGUUCGCUUUGCGUGCCAGAAGGGCGUGCGUUGG [Excl-NG3-LRO12] (Eterna round: R96, puzzle: Exclusion NG 3)” the “apparent KD of MS2 coat protein” value (input ligand: FMN 200 uM) was 31.3 nM, the “apparent KD of MS2 coat protein” value [4] was 21.6 nM and the “apparent KD of MS2 coat protein” value (input ligand: none) was 31.1 nM.
